Reference: US20240279278A1, “NMU RECEPTOR 2 AGONISTS” (Boehringer Ingelheim International GmbH, priority 2023, published 2024)
Each block holds one binder with its values, some of them ahead of it. Starred links: 1 amine or outer side, 2 acyl side, 3 side chain; linkers in the order of their positions; H or OH if unused. Non-standard residues stand in square brackets, D forms with d. *: point of attachment. Pipz(1-CH2CO,4-CH2CH2NH) = O=C(CN1CCN(CCN[*:1])CC1)[*:2]; C18 diacid = O=C(O)CCCCCCCCCCCCCCCCC(=O)*; γGlu = O=C(O)[C@H](CCC(=O)[*:2])N[*:1]; NMeL = CN[C@@H](CC(C)C)C(=O)O; hLys = NCCCCC[C@H](N)C(=O)O; Nle = CCCC[C@H](N)C(=O)O; Sar = CNCC(=O)O

Biological target: T1, human neuromedin U receptor 1 (human, UniProt Q9HB89 24-426)
T1 sequence (looked up): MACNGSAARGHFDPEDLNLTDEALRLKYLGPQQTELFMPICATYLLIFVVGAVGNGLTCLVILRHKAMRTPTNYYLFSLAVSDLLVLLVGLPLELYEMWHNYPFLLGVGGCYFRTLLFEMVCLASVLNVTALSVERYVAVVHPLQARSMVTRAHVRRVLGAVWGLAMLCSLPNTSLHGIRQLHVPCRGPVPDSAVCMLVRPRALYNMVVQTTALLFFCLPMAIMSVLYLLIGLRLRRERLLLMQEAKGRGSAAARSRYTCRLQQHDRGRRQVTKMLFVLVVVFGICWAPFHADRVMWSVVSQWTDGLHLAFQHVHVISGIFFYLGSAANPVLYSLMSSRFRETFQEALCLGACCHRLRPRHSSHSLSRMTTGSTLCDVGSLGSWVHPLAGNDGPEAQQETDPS
Experiment: cell-based or functional assay

B2: C18DA-gGlu3-Sar12-PipAc-Tyr-Phe-NMeLeu-Nle-Arg-Pro-Arg-Gly-NH2 (peptide)
peptide: EEEXXXXXXXXXXXXXYFLXRPRG
HELM: PEPTIDE1{[O=C(O)CCCCCCCCCCCCCCCCC(=O)[*:2]].[gGlu].[gGlu].[gGlu].[Sar].[Sar].[Sar].[Sar].[Sar].[Sar].[Sar].[Sar].[Sar].[Sar].[Sar].[Sar].[O=C(CN1CCN([*:1])CC1)[*:2]].Y.F.[meL].[Nle].R.P.R.G.[am]}$$$$V2.0
SMILES: CCCC[C@H](NC(=O)[C@H](CC(C)C)N(C)C(=O)[C@H](Cc1ccccc1)NC(=O)[C@H](Cc1ccc(O)cc1)NC(=O)CN1CCN(C(=O)CN(C)C(=O)CN(C)C(=O)CN(C)C(=O)CN(C)C(=O)CN(C)C(=O)CN(C)C(=O)CN(C)C(=O)CN(C)C(=O)CN(C)C(=O)CN(C)C(=O)CN(C)C(=O)CN(C)C(=O)CC[C@H](NC(=O)CC[C@H](NC(=O)CC[C@H](NC(=O)CCCCCCCCCCCCCCCCC(=O)O)C(=O)O)C(=O)O)C(=O)O)CC1)C(=O)N[C@@H](CCCNC(=N)N)C(=O)N1CCC[C@H]1C(=O)N[C@@H](CCCNC(=N)N)C(=O)NCC(N)=O
- EC50 (hNMUR1) buffer: 110 nM

B3: C18DA-gGlu3-Sar6-AEPipAc-Tyr-Phe-NMeLeu-Nle-Arg-Pro-Arg-Gly-NH2 (peptide)
peptide: EEEXXXXXXXYFLXRPRG
HELM: PEPTIDE1{[O=C(O)CCCCCCCCCCCCCCCCC(=O)[*:2]].[gGlu].[gGlu].[gGlu].[Sar].[Sar].[Sar].[Sar].[Sar].[Sar].[O=C(CN1CCN(CCN[*:1])CC1)[*:2]].Y.F.[meL].[Nle].R.P.R.G.[am]}$$$$V2.0
SMILES: CCCC[C@H](NC(=O)[C@H](CC(C)C)N(C)C(=O)[C@H](Cc1ccccc1)NC(=O)[C@H](Cc1ccc(O)cc1)NC(=O)CN1CCN(CCNC(=O)CN(C)C(=O)CN(C)C(=O)CN(C)C(=O)CN(C)C(=O)CN(C)C(=O)CN(C)C(=O)CC[C@H](NC(=O)CC[C@H](NC(=O)CC[C@H](NC(=O)CCCCCCCCCCCCCCCCC(=O)O)C(=O)O)C(=O)O)C(=O)O)CC1)C(=O)N[C@@H](CCCNC(=N)N)C(=O)N1CCC[C@H]1C(=O)N[C@@H](CCCNC(=N)N)C(=O)NCC(N)=O
- EC50 (hNMUR1) buffer: 82 nM

B4: C18DA-gGlu3-Sar9-AEPipAc-Tyr-Phe-NMeLeu-Nle-Arg-Pro-Arg-Gly-NH2 (peptide)
peptide: EEEXXXXXXXXXXYFLXRPRG
HELM: PEPTIDE1{[O=C(O)CCCCCCCCCCCCCCCCC(=O)[*:2]].[gGlu].[gGlu].[gGlu].[Sar].[Sar].[Sar].[Sar].[Sar].[Sar].[Sar].[Sar].[Sar].[O=C(CN1CCN(CCN[*:1])CC1)[*:2]].Y.F.[meL].[Nle].R.P.R.G.[am]}$$$$V2.0
SMILES: CCCC[C@H](NC(=O)[C@H](CC(C)C)N(C)C(=O)[C@H](Cc1ccccc1)NC(=O)[C@H](Cc1ccc(O)cc1)NC(=O)CN1CCN(CCNC(=O)CN(C)C(=O)CN(C)C(=O)CN(C)C(=O)CN(C)C(=O)CN(C)C(=O)CN(C)C(=O)CN(C)C(=O)CN(C)C(=O)CN(C)C(=O)CC[C@H](NC(=O)CC[C@H](NC(=O)CC[C@H](NC(=O)CCCCCCCCCCCCCCCCC(=O)O)C(=O)O)C(=O)O)C(=O)O)CC1)C(=O)N[C@@H](CCCNC(=N)N)C(=O)N1CCC[C@H]1C(=O)N[C@@H](CCCNC(=N)N)C(=O)NCC(N)=O
- EC50 (hNMUR1) buffer: 150 nM

B5: C18DA-gGlu3-Sar15-PipAc-Tyr-Phe-NMeLeu-Nle-Arg-Pro-Arg-Gly-NH2 (peptide)
peptide: EEEXXXXXXXXXXXXXXXXYFLXRPRG
HELM: PEPTIDE1{[O=C(O)CCCCCCCCCCCCCCCCC(=O)[*:2]].[gGlu].[gGlu].[gGlu].[Sar].[Sar].[Sar].[Sar].[Sar].[Sar].[Sar].[Sar].[Sar].[Sar].[Sar].[Sar].[Sar].[Sar].[Sar].[O=C(CN1CCN([*:1])CC1)[*:2]].Y.F.[meL].[Nle].R.P.R.G.[am]}$$$$V2.0
SMILES: CCCC[C@H](NC(=O)[C@H](CC(C)C)N(C)C(=O)[C@H](Cc1ccccc1)NC(=O)[C@H](Cc1ccc(O)cc1)NC(=O)CN1CCN(C(=O)CN(C)C(=O)CN(C)C(=O)CN(C)C(=O)CN(C)C(=O)CN(C)C(=O)CN(C)C(=O)CN(C)C(=O)CN(C)C(=O)CN(C)C(=O)CN(C)C(=O)CN(C)C(=O)CN(C)C(=O)CN(C)C(=O)CN(C)C(=O)CN(C)C(=O)CC[C@H](NC(=O)CC[C@H](NC(=O)CC[C@H](NC(=O)CCCCCCCCCCCCCCCCC(=O)O)C(=O)O)C(=O)O)C(=O)O)CC1)C(=O)N[C@@H](CCCNC(=N)N)C(=O)N1CCC[C@H]1C(=O)N[C@@H](CCCNC(=N)N)C(=O)NCC(N)=O
- EC50 (hNMUR1) buffer: 130 nM

B8: C18DA-gGlu3-Sar9-AEPipAc-Tyr-Phe-NMeLeu-Nle-hLys-Pro-Arg-Gly-NH2 (peptide)
peptide: {C18 diacid}-[γGlu][γGlu][γGlu][Sar][Sar][Sar][Sar][Sar][Sar][Sar][Sar][Sar][Pipz(1-CH2CO,4-CH2CH2NH)]YF[NMeL][Nle][hLys]PRG-NH2
SMILES: CCCC[C@H](NC(=O)[C@H](CC(C)C)N(C)C(=O)[C@H](Cc1ccccc1)NC(=O)[C@H](Cc1ccc(O)cc1)NC(=O)CN1CCN(CCNC(=O)CN(C)C(=O)CN(C)C(=O)CN(C)C(=O)CN(C)C(=O)CN(C)C(=O)CN(C)C(=O)CN(C)C(=O)CN(C)C(=O)CN(C)C(=O)CC[C@H](NC(=O)CC[C@H](NC(=O)CC[C@H](NC(=O)CCCCCCCCCCCCCCCCC(=O)O)C(=O)O)C(=O)O)C(=O)O)CC1)C(=O)N[C@@H](CCCCCN)C(=O)N1CCC[C@H]1C(=O)N[C@@H](CCCNC(=N)N)C(=O)NCC(N)=O
- EC50 (hNMUR1) buffer: 1400 nM

B9: C18DA-gGlu3-Sar9-AEPipAc-Tyr-Phe-NMeLeu-Nle-Arg-NMeAla-Arg-Gly-NH2 (peptide)
peptide: EEEXXXXXXXXXXYFLXRARG
HELM: PEPTIDE1{[O=C(O)CCCCCCCCCCCCCCCCC(=O)[*:2]].[gGlu].[gGlu].[gGlu].[Sar].[Sar].[Sar].[Sar].[Sar].[Sar].[Sar].[Sar].[Sar].[O=C(CN1CCN(CCN[*:1])CC1)[*:2]].Y.F.[meL].[Nle].R.[meA].R.G.[am]}$$$$V2.0
SMILES: CCCC[C@H](NC(=O)[C@H](CC(C)C)N(C)C(=O)[C@H](Cc1ccccc1)NC(=O)[C@H](Cc1ccc(O)cc1)NC(=O)CN1CCN(CCNC(=O)CN(C)C(=O)CN(C)C(=O)CN(C)C(=O)CN(C)C(=O)CN(C)C(=O)CN(C)C(=O)CN(C)C(=O)CN(C)C(=O)CN(C)C(=O)CC[C@H](NC(=O)CC[C@H](NC(=O)CC[C@H](NC(=O)CCCCCCCCCCCCCCCCC(=O)O)C(=O)O)C(=O)O)C(=O)O)CC1)C(=O)N[C@@H](CCCNC(=N)N)C(=O)N(C)[C@@H](C)C(=O)N[C@@H](CCCNC(=N)N)C(=O)NCC(N)=O
- EC50 (hNMUR1) buffer: 540 nM

Further lines, results first:

- EC50 (hNMUR1) buffer: 1100 nM
B1: C18DA-gGlu3-Sar15-PipAc-Tyr-Phe-NMeLeu-Nle-Dbu-Pro-Arg-Gly-NH2 (peptide)
peptide: EEEXXXXXXXXXXXXXXXXYFLXXPRG
HELM: PEPTIDE1{[O=C(O)CCCCCCCCCCCCCCCCC(=O)[*:2]].[gGlu].[gGlu].[gGlu].[Sar].[Sar].[Sar].[Sar].[Sar].[Sar].[Sar].[Sar].[Sar].[Sar].[Sar].[Sar].[Sar].[Sar].[Sar].[O=C(CN1CCN([*:1])CC1)[*:2]].Y.F.[meL].[Nle].[Dab].P.R.G.[am]}$$$$V2.0
SMILES: CCCC[C@H](NC(=O)[C@H](CC(C)C)N(C)C(=O)[C@H](Cc1ccccc1)NC(=O)[C@H](Cc1ccc(O)cc1)NC(=O)CN1CCN(C(=O)CN(C)C(=O)CN(C)C(=O)CN(C)C(=O)CN(C)C(=O)CN(C)C(=O)CN(C)C(=O)CN(C)C(=O)CN(C)C(=O)CN(C)C(=O)CN(C)C(=O)CN(C)C(=O)CN(C)C(=O)CN(C)C(=O)CN(C)C(=O)CN(C)C(=O)CC[C@H](NC(=O)CC[C@H](NC(=O)CC[C@H](NC(=O)CCCCCCCCCCCCCCCCC(=O)O)C(=O)O)C(=O)O)C(=O)O)CC1)C(=O)N[C@@H](CCN)C(=O)N1CCC[C@H]1C(=O)N[C@@H](CCCNC(=N)N)C(=O)NCC(N)=O

- EC50 (hNMUR1) buffer: > 1000 nM
B6: C18DA-gGlu3-Sar9-AEPipAc-Tyr-Phe-NMeLeu-Nle-Orn-NMeAla-Arg-Gly-NH2 (peptide)
peptide: EEEXXXXXXXXXXYFLXXARG
HELM: PEPTIDE1{[O=C(O)CCCCCCCCCCCCCCCCC(=O)[*:2]].[gGlu].[gGlu].[gGlu].[Sar].[Sar].[Sar].[Sar].[Sar].[Sar].[Sar].[Sar].[Sar].[O=C(CN1CCN(CCN[*:1])CC1)[*:2]].Y.F.[meL].[Nle].[Orn].[meA].R.G.[am]}$$$$V2.0
SMILES: CCCC[C@H](NC(=O)[C@H](CC(C)C)N(C)C(=O)[C@H](Cc1ccccc1)NC(=O)[C@H](Cc1ccc(O)cc1)NC(=O)CN1CCN(CCNC(=O)CN(C)C(=O)CN(C)C(=O)CN(C)C(=O)CN(C)C(=O)CN(C)C(=O)CN(C)C(=O)CN(C)C(=O)CN(C)C(=O)CN(C)C(=O)CC[C@H](NC(=O)CC[C@H](NC(=O)CC[C@H](NC(=O)CCCCCCCCCCCCCCCCC(=O)O)C(=O)O)C(=O)O)C(=O)O)CC1)C(=O)N[C@@H](CCCN)C(=O)N(C)[C@@H](C)C(=O)N[C@@H](CCCNC(=N)N)C(=O)NCC(N)=O

- EC50 (hNMUR1) buffer: 130 nM
B7: C18DA-gGlu2-Sar6-AEPipAc-Tyr-Phe-NMeLeu-Nle-Arg-Pro-Arg-Gly-NH2 (peptide)
peptide: EEXXXXXXXYFLXRPRG
HELM: PEPTIDE1{[O=C(O)CCCCCCCCCCCCCCCCC(=O)[*:2]].[gGlu].[gGlu].[Sar].[Sar].[Sar].[Sar].[Sar].[Sar].[O=C(CN1CCN(CCN[*:1])CC1)[*:2]].Y.F.[meL].[Nle].R.P.R.G.[am]}$$$$V2.0
SMILES: CCCC[C@H](NC(=O)[C@H](CC(C)C)N(C)C(=O)[C@H](Cc1ccccc1)NC(=O)[C@H](Cc1ccc(O)cc1)NC(=O)CN1CCN(CCNC(=O)CN(C)C(=O)CN(C)C(=O)CN(C)C(=O)CN(C)C(=O)CN(C)C(=O)CN(C)C(=O)CC[C@H](NC(=O)CC[C@H](NC(=O)CCCCCCCCCCCCCCCCC(=O)O)C(=O)O)C(=O)O)CC1)C(=O)N[C@@H](CCCNC(=N)N)C(=O)N1CCC[C@H]1C(=O)N[C@@H](CCCNC(=N)N)C(=O)NCC(N)=O
